PMC9352680, “A comprehensive thermodynamic model for RNA binding by the Saccharomyces cerevisiae Pumilio protein PUF4”

T1: PUF4 RNA-binding domain (Saccharomyces cerevisiae, UniProt P25339 537-888)
T1 sequence: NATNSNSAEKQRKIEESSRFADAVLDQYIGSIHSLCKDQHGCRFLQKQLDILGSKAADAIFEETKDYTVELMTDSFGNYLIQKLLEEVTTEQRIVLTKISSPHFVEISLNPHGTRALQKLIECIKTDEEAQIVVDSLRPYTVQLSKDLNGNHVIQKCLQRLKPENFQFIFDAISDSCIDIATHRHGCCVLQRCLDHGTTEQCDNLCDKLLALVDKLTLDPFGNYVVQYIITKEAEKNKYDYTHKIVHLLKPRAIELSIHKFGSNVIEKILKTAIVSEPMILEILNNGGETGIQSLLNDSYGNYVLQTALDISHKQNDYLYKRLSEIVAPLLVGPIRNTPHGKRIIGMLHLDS


molecular target: T1, PUF4 RNA-binding domain; experiment: Mg; RNA-MaP; 20 mM Na-HEPES pH 7.4, 30 mM KOAc, 0.75 mM MgCl2, 0.1% Tween-20, 5% glycerol, 0.1 mg/mL BSA, 2 mM DTT; 25 C; 0.0125-409.6 nM protein; settings: tags: N-His6-TEV cleaved; C-SNAP kept, Cy3B-labelled; label: tethered on chip by stalled RNA polymerase

Binder	Kd
ACAAACCUACACUAUAGCACAAAC (ssRNA) [Id_ii_S3_P3E.4_K3.3_C3.2_H3.3_A3.1_F3.1_T3.2_[T9G]_[A10C]]	2.26 µM
ACAAACCGACACUAUAUAACAAAC (ssRNA) [Id_ii_S3_P3E.4_K3.3_C3.2_[T-1G]_H3.3_A3.1_F3.1_T3.2]	> 2.3 µM
ACAAACCCACACUAUAUUACAAAC (ssRNA) [Id_ii_S3_P3E.4_K3.3_C3.2_[T-1C]_H3.3_A3.1_F3.1_T3.2_[A10T]]	2.12 µM
ACAAACCUACACUAUAAUACAAAC (ssRNA) [Id_ii_S3_P3E.4_K3.3_C3.2_H3.3_A3.1_F3.1_T3.2_[T9A]_[A10T]]	> 2.3 µM
ACAAACACACACUAUAGCACAAAC (ssRNA) [Id_ii_S3_P3E.4_K3.3_C3.2_[C-2A]_[T-1C]_H3.3_A3.1_F3.1_T3.2_[T9G]_[A10C]]	> 2.3 µM
ACAAACAUACACUAUACCACAAAC (ssRNA) [Id_ii_S3_P3E.4_K3.3_C3.2_[C-2A]_H3.3_A3.1_F3.1_T3.2_[T9C]_[A10C]]	1.76 µM
ACAAACCGACACUAUAAAACAAAC (ssRNA) [Id_ii_S3_P3E.4_K3.3_C3.2_[T-1G]_H3.3_A3.1_F3.1_T3.2_[T9A]]	> 2.3 µM
ACAAACGAUAUAUAUUACAACAAAC (ssRNA) [Id_ii_S3_P4E.3_K4.2_C4.2_[C-2G]_[T-1A]_H4.2_A4.1_F4.1_T4.2_[G10C]_[T11A]]	0.0504 µM
ACAAACCUACACUAUACUACAAAC (ssRNA) [Id_ii_S3_P3E.4_K3.3_C3.2_H3.3_A3.1_F3.1_T3.2_[T9C]_[A10T]]	> 2.3 µM
ACAAACCGACACUAUACUACAAAC (ssRNA) [Id_ii_S3_P3E.4_K3.3_C3.2_[T-1G]_H3.3_A3.1_F3.1_T3.2_[T9C]_[A10T]]	> 2.3 µM
ACAAACCUACACUAUACAACAAAC (ssRNA) [Id_ii_S3_P3E.4_K3.3_C3.2_H3.3_A3.1_F3.1_T3.2_[T9C]]	1.88 µM
ACAAACAGACACUAUAUUACAAAC (ssRNA) [Id_ii_S3_P3E.4_K3.3_C3.2_[C-2A]_[T-1G]_H3.3_A3.1_F3.1_T3.2_[A10T]]	2.2 µM
UCUCUUUGUAUGAUUCUCUCUU (ssRNA) [Ib_S1_P5E.1_K5.1_C5.1_H5.1_A5.1_[T6G]_F5.1_[A10C]_T5.1]	0.0901 µM
ACAAACACACACUAUAUUACAAAC (ssRNA) [Id_ii_S3_P3E.4_K3.3_C3.2_[C-2A]_[T-1C]_H3.3_A3.1_F3.1_T3.2_[A10T]]	1.65 µM
ACAAACUCACACUAUAGAACAAAC (ssRNA) [Id_ii_S3_P3E.4_K3.3_C3.2_[C-2T]_[T-1C]_H3.3_A3.1_F3.1_T3.2_[T9G]]	> 2.3 µM
UCUCUUUGUAAUAUUUUCUCUU (ssRNA) [Ib_S1_P5E.1_K5.1_C5.1_H5.1_A5.1_[T5A]_F5.1_[A10T]_T5.1]	0.015 µM
ACAAACCUACACUAUAAAACAAAC (ssRNA) [Id_ii_S3_P3E.4_K3.3_C3.2_H3.3_A3.1_F3.1_T3.2_[T9A]]	> 2.3 µM
ACAAACGCUAUAUAUUAUCACAAAC (ssRNA) [Id_ii_S3_P4E.3_K4.2_C4.2_[C-2G]_[T-1C]_H4.2_A4.1_F4.1_T4.2_[G10T]_[T11C]]	0.0201 µM
ACAAACCCACACUAUACGACAAAC (ssRNA) [Id_ii_S3_P3E.4_K3.3_C3.2_[T-1C]_H3.3_A3.1_F3.1_T3.2_[T9C]_[A10G]]	> 2.3 µM
ACAAACGAUAUAUAUUACCACAAAC (ssRNA) [Id_ii_S3_P4E.3_K4.2_C4.2_[C-2G]_[T-1A]_H4.2_A4.1_F4.1_T4.2_[G10C]_[T11C]]	0.0531 µM
ACAAACACACACUAUAUCACAAAC (ssRNA) [Id_ii_S3_P3E.4_K3.3_C3.2_[C-2A]_[T-1C]_H3.3_A3.1_F3.1_T3.2_[A10C]]	> 2.3 µM
ACAAACGCUAUAUAUUAUUACAAAC (ssRNA) [Id_ii_S3_P4E.3_K4.2_C4.2_[C-2G]_[T-1C]_H4.2_A4.1_F4.1_T4.2_[G10T]]	0.0144 µM
ACAAACGCUAUAUAUUACCACAAAC (ssRNA) [Id_ii_S3_P4E.3_K4.2_C4.2_[C-2G]_[T-1C]_H4.2_A4.1_F4.1_T4.2_[G10C]_[T11C]]	0.0271 µM
ACAAACCCACACUAUAGCACAAAC (ssRNA) [Id_ii_S3_P3E.4_K3.3_C3.2_[T-1C]_H3.3_A3.1_F3.1_T3.2_[T9G]_[A10C]]	> 2.3 µM
UCUCUUUGUACUAUUUUCUCUU (ssRNA) [Ib_S1_P5E.1_K5.1_C5.1_H5.1_A5.1_[T5C]_F5.1_[A10T]_T5.1]	0.0102 µM

Binder	Kd
ACAAACGGUAUAUAUUAAGACAAAC (ssRNA) [Id_ii_S3_P4E.3_K4.2_C4.2_[C-2G]_[T-1G]_H4.2_A4.1_F4.1_T4.2_[G10A]_[T11G]]	0.0488 µM
ACAAACAAACACUAUAGGACAAAC (ssRNA) [Id_ii_S3_P3E.4_K3.3_C3.2_[C-2A]_[T-1A]_H3.3_A3.1_F3.1_T3.2_[T9G]_[A10G]]	> 2.3 µM
ACAAACCUACACUAUAUCACAAAC (ssRNA) [Id_ii_S3_P3E.4_K3.3_C3.2_H3.3_A3.1_F3.1_T3.2_[A10C]]	1.76 µM
ACAAACUUACACUAUAAAACAAAC (ssRNA) [Id_ii_S3_P3E.4_K3.3_C3.2_[C-2T]_H3.3_A3.1_F3.1_T3.2_[T9A]]	> 2.3 µM
ACAAACCGACACUAUACAACAAAC (ssRNA) [Id_ii_S3_P3E.4_K3.3_C3.2_[T-1G]_H3.3_A3.1_F3.1_T3.2_[T9C]]	> 2.3 µM
ACAAACGCUAUAUAUUAAUACAAAC (ssRNA) [Id_ii_S3_P4E.3_K4.2_C4.2_[C-2G]_[T-1C]_H4.2_A4.1_F4.1_T4.2_[G10A]]	0.0199 µM
ACAAACCUACACUAUAUGACAAAC (ssRNA) [Id_ii_S3_P3E.4_K3.3_C3.2_H3.3_A3.1_F3.1_T3.2_[A10G]]	> 2.3 µM
ACAAACUAACACUAUAUAACAAAC (ssRNA) [Id_ii_S3_P3E.4_K3.3_C3.2_[C-2T]_[T-1A]_H3.3_A3.1_F3.1_T3.2]	> 2.3 µM
ACAAACAUACACUAUAGAACAAAC (ssRNA) [Id_ii_S3_P3E.4_K3.3_C3.2_[C-2A]_H3.3_A3.1_F3.1_T3.2_[T9G]]	1.31 µM
ACAAACCUACACUAUAGAACAAAC (ssRNA) [Id_ii_S3_P3E.4_K3.3_C3.2_H3.3_A3.1_F3.1_T3.2_[T9G]]	> 2.3 µM
ACAAACGCUAUAUAUUACAACAAAC (ssRNA) [Id_ii_S3_P4E.3_K4.2_C4.2_[C-2G]_[T-1C]_H4.2_A4.1_F4.1_T4.2_[G10C]_[T11A]]	0.0245 µM
ACAAACAUACACUAUACUACAAAC (ssRNA) [Id_ii_S3_P3E.4_K3.3_C3.2_[C-2A]_H3.3_A3.1_F3.1_T3.2_[T9C]_[A10T]]	1.07 µM
ACAAACUAACACUAUAUUACAAAC (ssRNA) [Id_ii_S3_P3E.4_K3.3_C3.2_[C-2T]_[T-1A]_H3.3_A3.1_F3.1_T3.2_[A10T]]	2.24 µM
ACAAACCCACACUAUAAGACAAAC (ssRNA) [Id_ii_S3_P3E.4_K3.3_C3.2_[T-1C]_H3.3_A3.1_F3.1_T3.2_[T9A]_[A10G]]	> 2.3 µM
ACAAACAGACACUAUACAACAAAC (ssRNA) [Id_ii_S3_P3E.4_K3.3_C3.2_[C-2A]_[T-1G]_H3.3_A3.1_F3.1_T3.2_[T9C]]	> 2.3 µM
UCUCUUUGUAGUAUUUUCUCUU (ssRNA) [Ib_S1_P5E.1_K5.1_C5.1_H5.1_A5.1_[T5G]_F5.1_[A10T]_T5.1]	0.101 µM
ACAAACUUACACUAUAUAACAAAC (ssRNA) [Id_ii_S3_P3E.4_K3.3_C3.2_[C-2T]_H3.3_A3.1_F3.1_T3.2]	0.969 µM
ACAAACAUACACUAUAUCACAAAC (ssRNA) [Id_ii_S3_P3E.4_K3.3_C3.2_[C-2A]_H3.3_A3.1_F3.1_T3.2_[A10C]]	1.23 µM
ACAAACUUACACUAUAGCACAAAC (ssRNA) [Id_ii_S3_P3E.4_K3.3_C3.2_[C-2T]_H3.3_A3.1_F3.1_T3.2_[T9G]_[A10C]]	2.17 µM
ACAAACUUACACUAUAUUACAAAC (ssRNA) [Id_ii_S3_P3E.4_K3.3_C3.2_[C-2T]_H3.3_A3.1_F3.1_T3.2_[A10T]]	0.959 µM
ACAAACAUACACUAUAUUACAAAC (ssRNA) [Id_ii_S3_P3E.4_K3.3_C3.2_[C-2A]_H3.3_A3.1_F3.1_T3.2_[A10T]]	0.556 µM
ACAAACUCACACUAUAUUACAAAC (ssRNA) [Id_ii_S3_P3E.4_K3.3_C3.2_[C-2T]_[T-1C]_H3.3_A3.1_F3.1_T3.2_[A10T]]	2.08 µM
ACAAACAUACACUAUAACACAAAC (ssRNA) [Id_ii_S3_P3E.4_K3.3_C3.2_[C-2A]_H3.3_A3.1_F3.1_T3.2_[T9A]_[A10C]]	1.68 µM
ACAAACAAACACUAUACAACAAAC (ssRNA) [Id_ii_S3_P3E.4_K3.3_C3.2_[C-2A]_[T-1A]_H3.3_A3.1_F3.1_T3.2_[T9C]]	> 2.3 µM
